Laboratory results published in patent US20100272723A1 (Xencor, published 2010).

molecular target: T1, human CD19 (human, UniProt P15391 20-556); assay: binding affinity relative to the parent H1L1 mAb (Example 5); assay and format not named on the sheet
T1 construct: also called B-cell surface antigen B4; B-cell antigen CD19
T1 sequence: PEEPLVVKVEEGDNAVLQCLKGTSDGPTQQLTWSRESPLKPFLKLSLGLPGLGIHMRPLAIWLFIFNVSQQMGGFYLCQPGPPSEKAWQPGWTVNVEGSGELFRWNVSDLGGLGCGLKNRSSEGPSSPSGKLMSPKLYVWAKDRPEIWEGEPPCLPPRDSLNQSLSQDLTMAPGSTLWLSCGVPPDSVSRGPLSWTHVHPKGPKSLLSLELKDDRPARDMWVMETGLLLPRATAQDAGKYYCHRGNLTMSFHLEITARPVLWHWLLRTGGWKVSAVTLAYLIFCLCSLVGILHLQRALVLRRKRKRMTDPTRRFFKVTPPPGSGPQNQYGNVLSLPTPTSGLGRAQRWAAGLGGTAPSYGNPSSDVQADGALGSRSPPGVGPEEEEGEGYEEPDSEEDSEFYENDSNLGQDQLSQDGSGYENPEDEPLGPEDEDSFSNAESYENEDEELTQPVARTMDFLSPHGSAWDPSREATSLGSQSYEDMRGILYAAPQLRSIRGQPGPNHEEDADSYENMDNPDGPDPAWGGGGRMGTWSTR

Binder	Fold change binding
H1 / L1.32 (antibody, V domains shown, vs H1L1 (Kabat): VL S27eV; also called 4G7 H1_L1.32) VH: EVQLVESGGGLVKPGGSLKLSCAASGYTFTSYVMHWVRQAPGKGLEWIGYINPYNDGTKYNEKFQGRVTISSDKSISTAYMELSSLRSEDTAMYYCARGTYYYGSRVFDYWGQGTLVTVSS VL: DIVMTQSPATLSLSPGERATLSCRSSKSLLNVNGNTYLYWFQQKPGQSPQLLIYRMSNLASGVPDRFSGSGSGTEFTLTISSLEPEDFAVYYCMQHLEYPFTFGAGTKLEIK	2.61 fold
H1 / L1.46 (antibody, V domains shown, vs H1L1 (Kabat): VL N53H; also called 4G7 H1_L1.46) VH: EVQLVESGGGLVKPGGSLKLSCAASGYTFTSYVMHWVRQAPGKGLEWIGYINPYNDGTKYNEKFQGRVTISSDKSISTAYMELSSLRSEDTAMYYCARGTYYYGSRVFDYWGQGTLVTVSS VL: DIVMTQSPATLSLSPGERATLSCRSSKSLLNSNGNTYLYWFQQKPGQSPQLLIYRMSHLASGVPDRFSGSGSGTEFTLTISSLEPEDFAVYYCMQHLEYPFTFGAGTKLEIK	1.75 fold
H1 / L1.54 (antibody, V domains shown, vs H1L1 (Kabat): VL N53G; also called 4G7 H1_L1.54) VH: EVQLVESGGGLVKPGGSLKLSCAASGYTFTSYVMHWVRQAPGKGLEWIGYINPYNDGTKYNEKFQGRVTISSDKSISTAYMELSSLRSEDTAMYYCARGTYYYGSRVFDYWGQGTLVTVSS VL: DIVMTQSPATLSLSPGERATLSCRSSKSLLNSNGNTYLYWFQQKPGQSPQLLIYRMSGLASGVPDRFSGSGSGTEFTLTISSLEPEDFAVYYCMQHLEYPFTFGAGTKLEIK	1.5 fold
H1 / L1.55 (antibody, V domains shown, vs H1L1 (Kabat): VL N53Y; also called 4G7 H1_L1.55) VH: EVQLVESGGGLVKPGGSLKLSCAASGYTFTSYVMHWVRQAPGKGLEWIGYINPYNDGTKYNEKFQGRVTISSDKSISTAYMELSSLRSEDTAMYYCARGTYYYGSRVFDYWGQGTLVTVSS VL: DIVMTQSPATLSLSPGERATLSCRSSKSLLNSNGNTYLYWFQQKPGQSPQLLIYRMSYLASGVPDRFSGSGSGTEFTLTISSLEPEDFAVYYCMQHLEYPFTFGAGTKLEIK	1.58 fold

Results, then the binder that gave them:

Fold change binding	Binder
1.8 fold	H1 / L1.64 (antibody, V domains shown, vs H1L1 (Kabat): VL F96I; also called 4G7 H1_L1.64) VH: EVQLVESGGGLVKPGGSLKLSCAASGYTFTSYVMHWVRQAPGKGLEWIGYINPYNDGTKYNEKFQGRVTISSDKSISTAYMELSSLRSEDTAMYYCARGTYYYGSRVFDYWGQGTLVTVSS VL: DIVMTQSPATLSLSPGERATLSCRSSKSLLNSNGNTYLYWFQQKPGQSPQLLIYRMSNLASGVPDRFSGSGSGTEFTLTISSLEPEDFAVYYCMQHLEYPITFGAGTKLEIK
1.73 fold	H1 / L1.67 (antibody, V domains shown, vs H1L1 (Kabat): VL F96V; also called 4G7 H1_L1.67) VH: EVQLVESGGGLVKPGGSLKLSCAASGYTFTSYVMHWVRQAPGKGLEWIGYINPYNDGTKYNEKFQGRVTISSDKSISTAYMELSSLRSEDTAMYYCARGTYYYGSRVFDYWGQGTLVTVSS VL: DIVMTQSPATLSLSPGERATLSCRSSKSLLNSNGNTYLYWFQQKPGQSPQLLIYRMSNLASGVPDRFSGSGSGTEFTLTISSLEPEDFAVYYCMQHLEYPVTFGAGTKLEIK
2.12 fold	H1 / L1.68 (antibody, V domains shown, vs H1L1 (Kabat): VL F96N; also called 4G7 H1_L1.68) VH: EVQLVESGGGLVKPGGSLKLSCAASGYTFTSYVMHWVRQAPGKGLEWIGYINPYNDGTKYNEKFQGRVTISSDKSISTAYMELSSLRSEDTAMYYCARGTYYYGSRVFDYWGQGTLVTVSS VL: DIVMTQSPATLSLSPGERATLSCRSSKSLLNSNGNTYLYWFQQKPGQSPQLLIYRMSNLASGVPDRFSGSGSGTEFTLTISSLEPEDFAVYYCMQHLEYPNTFGAGTKLEIK
1.62 fold	H1 / L1.80 (antibody, V domains shown, vs H1L1 (Kabat): VL Y34F; also called 4G7 H1_L1.80) VH: EVQLVESGGGLVKPGGSLKLSCAASGYTFTSYVMHWVRQAPGKGLEWIGYINPYNDGTKYNEKFQGRVTISSDKSISTAYMELSSLRSEDTAMYYCARGTYYYGSRVFDYWGQGTLVTVSS VL: DIVMTQSPATLSLSPGERATLSCRSSKSLLNSNGNTYLFWFQQKPGQSPQLLIYRMSNLASGVPDRFSGSGSGTEFTLTISSLEPEDFAVYYCMQHLEYPFTFGAGTKLEIK
